Results from US20190328865A1.

Biological target: dipeptidyl peptidase 4 (DPP4), cellular receptor on Huh-7 cells (human) (UniProt P27487)
Assay: cell-based or functional assay

Chain of UniProt P27487 (P27487 whole entry): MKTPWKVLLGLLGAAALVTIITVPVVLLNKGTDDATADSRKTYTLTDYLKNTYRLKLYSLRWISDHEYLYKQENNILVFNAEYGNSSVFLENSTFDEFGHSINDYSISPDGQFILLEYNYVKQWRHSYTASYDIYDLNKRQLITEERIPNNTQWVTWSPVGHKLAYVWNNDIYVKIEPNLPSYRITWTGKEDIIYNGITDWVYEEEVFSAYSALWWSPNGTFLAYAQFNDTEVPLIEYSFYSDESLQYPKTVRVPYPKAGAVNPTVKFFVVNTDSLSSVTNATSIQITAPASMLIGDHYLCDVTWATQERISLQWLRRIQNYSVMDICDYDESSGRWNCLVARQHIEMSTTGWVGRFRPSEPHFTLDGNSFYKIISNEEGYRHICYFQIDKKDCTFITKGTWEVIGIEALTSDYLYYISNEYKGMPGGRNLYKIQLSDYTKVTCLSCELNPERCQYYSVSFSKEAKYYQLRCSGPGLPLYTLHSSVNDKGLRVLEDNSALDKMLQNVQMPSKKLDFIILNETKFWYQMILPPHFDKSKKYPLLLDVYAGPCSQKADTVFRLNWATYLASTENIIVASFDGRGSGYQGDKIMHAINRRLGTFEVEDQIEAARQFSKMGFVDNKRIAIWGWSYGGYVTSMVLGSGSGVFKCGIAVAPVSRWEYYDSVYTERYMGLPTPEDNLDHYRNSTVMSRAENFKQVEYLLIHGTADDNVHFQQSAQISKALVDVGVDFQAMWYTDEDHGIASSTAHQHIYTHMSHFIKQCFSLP

Q: “S377-588-Fc (residues 377-588 of MERS-CoV S protein fused to Fc of human IgG) (Fc fusion)” was tested. Which inhibition of CPE formation caused by MERS-CoV infection in Calu-3 cells did it give?
A: 3 µg/mL
